Assay results: article PMC8257933

Tests used:
[1] = target: NTCP-V5-His G60LXXXA64L/G233LXXXG237L (TMD2/7) double mutant; assay: co-IP (IP anti-FLAG agarose, western blot anti-V5, ImageJ band quantification); conditions: HEK293 cells co-transfected with NTCP-FLAG and NTCP-V5-His; n = 3 independent experiments; parent: est. 100; read off a plot
[2] = target: NTCP-V5-His G233LXXXG237L (TMD7) mutant; assay: as above; conditions: HEK293 cells co-transfected with NTCP-FLAG and NTCP-V5-His; n = 3 independent experiments; parent: est. 100; read off a plot

Row | Substance | percent of parent [1] | percent of parent [2]
1 | NTCP wild type, NTCP-FLAG and NTCP-V5-His expressed in HEK293 cells (from UniProt Q14973) binder (NTCP-FLAG): G60L; A64L; G233L; G237L; target (NTCP-V5): G60L; A64L; G233L; G237L | 130 % of control | –
2 | NTCP wild type, NTCP-FLAG and NTCP-V5-His expressed in HEK293 cells (from UniProt Q14973) binder (NTCP-FLAG): G60L; A64L; target (NTCP-V5): G233L; G237L | – | 120 % of control
